Measured values as given in PMC6914384.
pKd: −log10 of the molar value.

Legend:
[1] = target: p300 BRP module (bromodomain-RING-PHD), residues 1048-1282 (UniProt Q09472); test: ITC
[2] = target: pIRF3 (IRF3 1-427 phosphorylated in vitro by TBK1) (UniProt Q14653); test: SEC
[3] = target: pSTAT1ΔN (136-748), Tyr701-phosphorylated (UniProt P42224); test: SEC
[4] = target: pSTAT1ΔNC (136-713), Tyr701-phosphorylated (UniProt P42224); test: SEC

Sequence of p300 BRP module (bromodomain-RING-PHD), residues 1048-1282 (Q09472 1048-1282): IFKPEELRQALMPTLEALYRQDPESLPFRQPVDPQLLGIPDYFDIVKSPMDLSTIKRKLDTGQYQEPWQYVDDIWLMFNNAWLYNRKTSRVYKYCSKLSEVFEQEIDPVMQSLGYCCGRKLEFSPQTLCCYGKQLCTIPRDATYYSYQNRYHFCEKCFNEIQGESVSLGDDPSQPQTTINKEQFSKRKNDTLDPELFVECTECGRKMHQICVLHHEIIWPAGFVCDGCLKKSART

H4 K8acK12ac (4-24) peptide
pKd [1]: 4.05
stoichiometry N [1]: 1.01

pIRF3 (IRF3 1-427 phosphorylated in vitro by TBK1) (from UniProt Q14653 1-427) (natural protein)
stoichiometry N [2]: 2

pSTAT1ΔN (136-748), Tyr701-phosphorylated (from UniProt P42224 136-748) (domain or fragment)
stoichiometry N [3]: 2

pSTAT1ΔNC (136-713), Tyr701-phosphorylated (from UniProt P42224 136-713) (domain or fragment)
stoichiometry N [4]: 2
